Molecular target: rat anti-DNP (IgG^DNP, clone: LO-DNP-2) photocrosslinked with IBA-biotin
Experiment: ELISA, anti-Fc HRP secondary on UV exposed IBA-biotin photocrosslinked IgG^DNP (antigen-bound or directly adsorbed), relative to no UV

How did the Fc recognition (percent activity at 2.0 J/cm^2 UV) turn out when “HRP-conjugated IgG Fcγ specific goat anti-rat (antibody)” was run?
The Fc recognition (percent activity at 2.0 J/cm^2 UV) was 75%.
